Reference: patent US20130183702

Test system: T1, cholesterol-tagged, protease-sensitive polyacrylic acid block copolymer containing the peptide GSGRSAGC (SEQ ID NO: 20), embedded in polymer-caged liposomes (PCLs)
T1 sequence: GSGRSAGC

Q: For urokinase plasminogen activator (uPA), which “carboxyfluorescein release from PCLs (total fluorescent intensity), -uPA vs +uPA (25 ug/mL, fresh batch), second test” value is on record?
A: They show very little difference in total intensity and the p value is 0.6617 between the two, indicating that they are not different

Q: And the “carboxyfluorescein release from PCLs (total fluorescent intensity), no uPA vs 25 ug/mL uPA, first test” value?
A: there was very little difference between the no uPA sample and the uPA sample, indicating that the polymer caged liposome did not have the desired sensitivity to uPA (p=0.5173)

Q: And the “carboxyfluorescein release from PCLs (total fluorescent intensity), no uPA vs renatured uPA, third test” value?
A: there is a difference between the no uPA sample and the uPA sample with the uPA sample being significantly higher (p value 0.0071)

Q: What about the “change in conductance (current vs. time) after adding 10^-11 mol urokinase to MgSO4-loaded PCLs” value of the same substance?
A: A significant increase in conductance was observed due to the release of Mg^2+ and SO4^2- from the liposomes' hydrophilic interior

Q: And the “fluorescence of cyanine 7.0 released from PCLs after adding urokinase-type plasminogen activator, recorded every 5 min” value?
A: The highest peak was visible after 50 minutes of incubation time
